Test results from PMC4020936.

Legend:
[1] = biological target: C13S-mutant rGlEB1 (G. lamblia); experiment: SEC; about 800 µg rGlEB1 in PBS on Superdex 75 10/300 GL; size markers 75, 29, 14 and 6 kDa; monomer to dimer
[2] = biological target: C46S-mutant rGlEB1 (G. lamblia); experiment: SDS-PAGE of SEC fractions without DTT; fractions eluted from SEC separated by SDS-PAGE without DTT; shows disulfide-linked dimers only
[3] = biological target: full-length recombinant Giardia lamblia end-binding 1 protein, rGlEB1_(1–238) (G. lamblia); experiment: SEC; about 800 µg rGlEB1 in PBS on Superdex 75 10/300 GL; size markers 75, 29, 14 and 6 kDa; monomer to dimer
[4] = biological target: full-length recombinant Giardia lamblia end-binding 1 protein, rGlEB1_(1–238) (G. lamblia); experiment: SDS-PAGE of SEC fractions without DTT; fractions eluted from SEC separated by SDS-PAGE without DTT; shows disulfide-linked dimers only
[5] = biological target: truncated recombinant G. lamblia EB1, rGlEB1_(1–184) (CH domain and linker) (G. lamblia); experiment: SEC; about 800 µg rGlEB1 in PBS on Superdex 75 10/300 GL; size markers 75, 29, 14 and 6 kDa; monomer to dimer

Question: With C13S-mutant rGlEB1 (natural protein) as the substance, how does the stoichiometry N [1] read?
Answer: The stoichiometry N was 2.

Question: C46S-mutant rGlEB1 (natural protein) was tested. Which stoichiometry N [2] did it give?
Answer: The stoichiometry N was 2.

Question: How did the stoichiometry N [3] turn out when “full-length recombinant Giardia lamblia end-binding 1 protein, rGlEB1_(1–238) (natural protein)” was run?
Answer: Its stoichiometry N is 2.

Question: And the stoichiometry N [4]?
Answer: The stoichiometry N was 2.

Question: For “truncated recombinant G. lamblia EB1, rGlEB1_(1–184) (CH domain and linker) (domain or fragment)”, which stoichiometry N [5] is on record?
Answer: Its stoichiometry N is 2.
